From US20120142597A1 (GEORGIA TECH RESEARCH, published 2012)

Experiments:
[1] = biological target: T1, α5β1 integrin on MC3T3-E1 murine osteoblast-like cells (mouse, UniProt P11688 45-1053; P09055 21-798); experiment: cell-based or functional assay
[2] = biological target: αvβ3 integrin on MC3T3-E1 murine osteoblast-like cells (mouse, UniProt P43406 31-1044; O54890 26-787); experiment: cell-based or functional assay
[3] = biological target: T1, α5β1 integrin on MC3T3-E1 murine …; experiment: antibody blocking of adhesion, MC3T3-E1 cells on tethered ligand
Description: MC3T3-E1 cells were labeled with 4 mM calcein-AM, a membrane-permeable green fluorescent dye, in 2 mM dextrose-DPBS for 30 min and resuspended in α-MEM with 10% FBS. Cells were seeded onto the surfaces at 200 cells/mm², and allowed to attach for 1 h at 37° C. For blocking antibody experiments, cells were incubated in the presence of function-perturbing antibodies (10 μg/ml) for 10 min with gentle agitation prior to cell seeding. […] Wells were then filled completely with dextrose-PBS, sealed, inverted, and centrifuged for 5 min at a prescribed speed on a Beckman Allegra 6 centrifuge (GH 3.8 rotor) to apply normal detachment forces. Media was then gently aspirated from the wells, and wells were refilled for post-spin image collection. Post/pre-spin cell ratios were determined by image analysis, and this adhesive fraction was plotted against ligand surface density to obtain cell adhesion profiles.
Function-perturbing antibodies directed against different integrin subunits were used to block adhesion to the engineered interfaces. Since integrins α₅β₁ and αᵥβ₃ represent the dominant adhesion receptors for FN in MC3T3-E1 cells, the contributions of these receptors to adhesion strength on the peptide-functionalized SAMs was examined. Surfaces were tethered with maximum density of ligand, and the relative cell adhesion was normalized to unblocked controls.

T1 sequence (P11688 45-1053, chain 1 of 2): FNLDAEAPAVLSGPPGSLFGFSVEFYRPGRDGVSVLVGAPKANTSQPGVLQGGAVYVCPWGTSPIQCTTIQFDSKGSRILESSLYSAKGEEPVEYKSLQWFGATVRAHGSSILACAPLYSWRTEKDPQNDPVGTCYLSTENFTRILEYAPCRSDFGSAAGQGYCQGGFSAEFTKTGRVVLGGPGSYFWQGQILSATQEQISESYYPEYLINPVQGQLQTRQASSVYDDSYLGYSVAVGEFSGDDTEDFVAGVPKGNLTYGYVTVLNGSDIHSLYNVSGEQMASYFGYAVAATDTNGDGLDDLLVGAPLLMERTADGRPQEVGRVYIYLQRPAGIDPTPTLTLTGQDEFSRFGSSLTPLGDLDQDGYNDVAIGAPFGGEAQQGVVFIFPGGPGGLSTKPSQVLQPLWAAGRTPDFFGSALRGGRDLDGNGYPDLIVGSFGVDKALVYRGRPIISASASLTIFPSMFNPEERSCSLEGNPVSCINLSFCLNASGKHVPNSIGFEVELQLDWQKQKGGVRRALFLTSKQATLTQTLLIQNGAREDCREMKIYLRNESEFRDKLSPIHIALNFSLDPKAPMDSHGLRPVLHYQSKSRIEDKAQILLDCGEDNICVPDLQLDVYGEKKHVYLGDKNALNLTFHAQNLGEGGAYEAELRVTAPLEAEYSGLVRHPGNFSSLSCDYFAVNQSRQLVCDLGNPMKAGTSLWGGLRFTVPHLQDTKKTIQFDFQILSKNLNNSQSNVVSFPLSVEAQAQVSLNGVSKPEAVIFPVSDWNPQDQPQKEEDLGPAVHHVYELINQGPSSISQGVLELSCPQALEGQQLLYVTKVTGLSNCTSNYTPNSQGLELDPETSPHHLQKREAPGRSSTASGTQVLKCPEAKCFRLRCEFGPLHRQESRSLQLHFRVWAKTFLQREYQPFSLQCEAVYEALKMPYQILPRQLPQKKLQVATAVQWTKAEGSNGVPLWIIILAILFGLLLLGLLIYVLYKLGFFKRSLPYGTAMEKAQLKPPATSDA
T1 sequence (P09055 21-798, chain 2 of 2): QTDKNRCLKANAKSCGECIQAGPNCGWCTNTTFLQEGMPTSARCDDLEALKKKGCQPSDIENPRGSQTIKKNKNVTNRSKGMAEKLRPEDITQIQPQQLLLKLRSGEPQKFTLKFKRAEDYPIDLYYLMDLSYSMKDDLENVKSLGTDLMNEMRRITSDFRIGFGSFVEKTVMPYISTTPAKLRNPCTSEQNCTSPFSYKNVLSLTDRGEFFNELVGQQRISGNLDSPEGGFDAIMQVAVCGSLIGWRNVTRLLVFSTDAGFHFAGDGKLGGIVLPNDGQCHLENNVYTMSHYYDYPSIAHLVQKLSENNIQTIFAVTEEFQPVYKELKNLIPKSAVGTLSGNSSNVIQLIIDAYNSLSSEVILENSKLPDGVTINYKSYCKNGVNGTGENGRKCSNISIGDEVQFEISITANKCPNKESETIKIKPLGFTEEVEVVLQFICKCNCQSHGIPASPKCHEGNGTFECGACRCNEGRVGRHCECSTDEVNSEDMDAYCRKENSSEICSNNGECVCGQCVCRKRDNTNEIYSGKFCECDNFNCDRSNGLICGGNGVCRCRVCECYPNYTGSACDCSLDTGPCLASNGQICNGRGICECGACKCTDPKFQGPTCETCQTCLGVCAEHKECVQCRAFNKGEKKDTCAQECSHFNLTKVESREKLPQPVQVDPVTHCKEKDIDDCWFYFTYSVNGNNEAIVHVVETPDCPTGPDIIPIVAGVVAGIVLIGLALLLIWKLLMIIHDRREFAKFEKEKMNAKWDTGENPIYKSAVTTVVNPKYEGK
αvβ3 integrin on MC3T3-E1 murine osteoblast-like cells, sequence (P43406 31-1044, chain 1 of 2): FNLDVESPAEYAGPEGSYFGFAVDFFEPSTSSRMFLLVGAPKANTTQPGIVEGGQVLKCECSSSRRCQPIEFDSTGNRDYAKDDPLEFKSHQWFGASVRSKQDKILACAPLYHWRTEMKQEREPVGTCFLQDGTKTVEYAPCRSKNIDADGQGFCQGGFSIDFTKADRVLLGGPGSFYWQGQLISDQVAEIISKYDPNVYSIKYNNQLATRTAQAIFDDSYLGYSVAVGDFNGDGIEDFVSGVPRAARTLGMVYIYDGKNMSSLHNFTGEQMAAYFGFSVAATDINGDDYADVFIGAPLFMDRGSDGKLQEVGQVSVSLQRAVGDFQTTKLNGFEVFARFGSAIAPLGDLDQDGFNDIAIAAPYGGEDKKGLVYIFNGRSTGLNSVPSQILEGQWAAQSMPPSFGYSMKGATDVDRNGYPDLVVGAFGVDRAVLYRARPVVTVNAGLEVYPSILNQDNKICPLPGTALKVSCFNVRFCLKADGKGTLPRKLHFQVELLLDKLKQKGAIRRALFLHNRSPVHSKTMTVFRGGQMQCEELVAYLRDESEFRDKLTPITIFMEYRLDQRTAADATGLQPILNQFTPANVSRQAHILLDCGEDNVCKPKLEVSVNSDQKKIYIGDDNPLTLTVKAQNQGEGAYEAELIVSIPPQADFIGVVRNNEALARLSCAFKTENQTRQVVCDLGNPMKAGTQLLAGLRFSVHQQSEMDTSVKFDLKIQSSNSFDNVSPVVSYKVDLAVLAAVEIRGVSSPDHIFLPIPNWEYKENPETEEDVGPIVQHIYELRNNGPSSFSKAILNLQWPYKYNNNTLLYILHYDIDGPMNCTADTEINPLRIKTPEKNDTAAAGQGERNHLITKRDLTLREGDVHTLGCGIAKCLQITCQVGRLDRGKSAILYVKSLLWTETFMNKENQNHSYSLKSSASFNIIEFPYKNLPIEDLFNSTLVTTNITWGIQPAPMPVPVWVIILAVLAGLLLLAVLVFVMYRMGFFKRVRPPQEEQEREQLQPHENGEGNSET
αvβ3 integrin on MC3T3-E1 murine osteoblast-like cells, sequence (O54890 26-787, chain 2 of 2): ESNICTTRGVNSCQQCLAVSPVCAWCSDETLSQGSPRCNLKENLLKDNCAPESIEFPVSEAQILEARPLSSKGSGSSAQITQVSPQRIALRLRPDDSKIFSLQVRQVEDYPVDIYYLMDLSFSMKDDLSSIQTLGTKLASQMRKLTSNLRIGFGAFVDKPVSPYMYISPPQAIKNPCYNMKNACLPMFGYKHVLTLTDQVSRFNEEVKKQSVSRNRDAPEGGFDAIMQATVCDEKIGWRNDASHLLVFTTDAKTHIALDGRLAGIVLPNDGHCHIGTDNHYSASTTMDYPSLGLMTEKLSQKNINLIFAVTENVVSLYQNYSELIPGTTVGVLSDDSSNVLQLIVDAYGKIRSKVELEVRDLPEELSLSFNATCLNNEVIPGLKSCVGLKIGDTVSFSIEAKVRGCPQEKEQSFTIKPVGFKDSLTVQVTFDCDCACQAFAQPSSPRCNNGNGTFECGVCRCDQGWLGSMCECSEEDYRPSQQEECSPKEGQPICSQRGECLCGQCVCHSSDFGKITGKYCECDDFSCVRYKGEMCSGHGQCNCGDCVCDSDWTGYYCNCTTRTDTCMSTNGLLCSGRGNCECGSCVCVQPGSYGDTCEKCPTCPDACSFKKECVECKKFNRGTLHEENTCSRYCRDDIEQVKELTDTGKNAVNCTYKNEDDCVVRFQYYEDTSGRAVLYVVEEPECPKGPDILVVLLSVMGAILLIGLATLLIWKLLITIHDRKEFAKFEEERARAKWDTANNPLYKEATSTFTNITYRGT

Binder	ADH50 (ligand density required for half-maximal adhesion of MC3T3-E1 cells) [1] [fmol/cm^2]	FAK tyrosine-397 phosphorylation, FNIII7-10 surface against RGD-tethered surface [1] [fold]	cell proliferation rate (BrdU incorporation), FNIII7-10 surface against RGD-tethered surface [1] [fold]	ADH50 (ligand density required for half-maximal adhesion of MC3T3-E1 cells) [2] [fmol/cm^2]	binding result [3]
monobiotinylated recombinant fibronectin fragment FNIII7-10 (ligand, single biotin on the N-terminal biotin tagging sequence (monobiotinylated)) not shown	70	~3	2	–	–
GRGDSPC [RGD peptide (GRGDSPC)]	–	–	–	2300	–
GRGDGGGGGGGGGGGGGPHSRN (Synthetic; tethered to SAMs) [RGD-PHSRN peptide (GRGDG13PHSRN)]	–	–	–	1950	no binding
